Laboratory results published in patent US20220204602A1 (University of Pennsylvania, published 2022).

B1: Cyno FcRn (receptor, Cynomolgus)
chain 1: AESHLSLLYHLTAVSSPAPGTPAFWVSGWLGPQQYLSYDSLRGQAEPCGAWVWENQVSWYWEKETTDLRIKEKLFLEAFKALGGKGPYTLQGLLGCELSPDNTSVPTAKFALNGEEFMNFDLKQGTWGGDWPEALAISQRWQQQDKAANKELTFLLFSCPHRLREHLERGRGNLEWKEPPSMRLKARPGNPGFSVLTCSAFSFYPPELQLRFLRNGMAAGTGQGDFGPNSDGSFHASSSLTVKSGDEHHYCCIVQHAGLAQPLRVELETPAKSS
chain 2: IQRTPKIQVYSRHPPENGKPNFLNCYVSGFHPSDIEVDLLKNGEKMGKVEHSDLSFSKDWSFYLLYYTEFTPNEKDEYACRVNHVTLSGPRTVKWDRDM
notes: also called Cynomolgus FcRn; purified Cyno FcRn

Tests used:
[1] = target: T1, anti-C5 mAb/FH SCR1-5 fusion protein FMEH-IgG4PLA-FH1-5 (human, UniProt P08603 19-322, limits assumed); experiment: SPR (Biacore-3000), Cyno FcRn amine-coupled on CM5 chip (200 RU), fusion protein as analyte, pH 6.0, bivalent binding model
T1 construct: domain: SCR 1-5; also called FMEH-FH1-5; FMEH-IgG4PLA-FH SCR1-5; not shown: human light chain constant region
T1 sequence (P08603 other isoform, or with tags, fused parts or gaps limits assumed): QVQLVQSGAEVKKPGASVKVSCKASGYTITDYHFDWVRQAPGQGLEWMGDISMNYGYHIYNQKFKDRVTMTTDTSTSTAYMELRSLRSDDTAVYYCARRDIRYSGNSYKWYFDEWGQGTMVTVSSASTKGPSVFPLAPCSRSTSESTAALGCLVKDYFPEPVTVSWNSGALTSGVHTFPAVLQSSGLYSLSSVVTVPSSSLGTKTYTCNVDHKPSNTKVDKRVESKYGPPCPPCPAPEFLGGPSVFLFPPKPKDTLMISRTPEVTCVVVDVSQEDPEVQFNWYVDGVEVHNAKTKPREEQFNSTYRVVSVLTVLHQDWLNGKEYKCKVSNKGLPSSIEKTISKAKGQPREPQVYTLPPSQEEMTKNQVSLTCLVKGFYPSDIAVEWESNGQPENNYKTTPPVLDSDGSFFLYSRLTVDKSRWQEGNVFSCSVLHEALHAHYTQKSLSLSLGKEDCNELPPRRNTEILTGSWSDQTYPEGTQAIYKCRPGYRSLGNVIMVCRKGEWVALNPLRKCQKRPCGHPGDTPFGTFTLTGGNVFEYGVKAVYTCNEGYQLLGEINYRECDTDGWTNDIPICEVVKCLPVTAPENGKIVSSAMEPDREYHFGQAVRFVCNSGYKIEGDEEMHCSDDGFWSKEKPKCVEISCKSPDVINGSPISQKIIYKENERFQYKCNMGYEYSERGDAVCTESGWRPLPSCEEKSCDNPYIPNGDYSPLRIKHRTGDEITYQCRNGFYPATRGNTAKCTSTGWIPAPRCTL

human FcRn = target: T2, human FcRn (human, UniProt P55899 24-297; P61769 21-119, limits assumed); experiment: SPR (Biacore-3000), human FcRn amine-coupled on CM5 chip (280 RU), antibody as analyte, pH 6.0, bivalent binding model
T2 construct: also called purified human FcRn
T2 sequence (P61769 21-119 limits assumed, form in doubt, one chain of several): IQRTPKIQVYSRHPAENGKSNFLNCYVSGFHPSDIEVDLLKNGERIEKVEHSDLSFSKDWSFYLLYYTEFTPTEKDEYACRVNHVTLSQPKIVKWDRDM
Description: Biacore analysis was performed on a Biacore-3000 instrument. The chip was regenerated between each binding using 7.4 pH Buffer.
The carboxylated dextran matrix of a CM5 sensor chip was used to couple the purified human or Cyno FcRn, by amine coupling chemistry to obtain 280 RU or 200 RU surface density, respectively. […] The data were analyzed by the BIA evaluation software 3.2 assuming bivalent binding model.

Cyno FcRn = target: B1; experiment: SPR (Biacore-3000), Cyno FcRn amine-coupled on CM5 chip (200 RU), antibody as analyte, pH 6.0, bivalent binding model
Description: Purified Cyno FcRn was coupled onto CM5 chip using the amine coupling method(200RU). Biacore analysis was performed on a Biacore-3000 instrument. The chip was regenerated between each binding using 7.4 pH Buffer.
Affinity analysis of FMEH-IgG4PLA and FMEH-IgG4PLA-FH1-5 to human or Cynomolgus FcRn: Surface Plasmon resonance analysis was used to measure the association and dissociation rate constant for binding of FMEH-IgG4PLA and FMEH-IgG4PLA-FH1-5 to immobilized human or Cyno FcRn, using BIAcore 3000 instrument (Biacore AB, Uppsala, Sweden) and all Biacore experiments were performed at 25° C. The carboxylated dextran matrix of a CM5 sensor chip was used to couple the purified human or Cyno FcRn, by amine coupling chemistry to obtain 280 RU or 200 RU surface density, respectively. […] The data were analyzed by the BIA evaluation software 3.2 assuming bivalent binding model.

B1
Kd [1]: 39.1 nM

B2: anti-C5 mAb FMEH-IgG4PLA (antibody)
heavy: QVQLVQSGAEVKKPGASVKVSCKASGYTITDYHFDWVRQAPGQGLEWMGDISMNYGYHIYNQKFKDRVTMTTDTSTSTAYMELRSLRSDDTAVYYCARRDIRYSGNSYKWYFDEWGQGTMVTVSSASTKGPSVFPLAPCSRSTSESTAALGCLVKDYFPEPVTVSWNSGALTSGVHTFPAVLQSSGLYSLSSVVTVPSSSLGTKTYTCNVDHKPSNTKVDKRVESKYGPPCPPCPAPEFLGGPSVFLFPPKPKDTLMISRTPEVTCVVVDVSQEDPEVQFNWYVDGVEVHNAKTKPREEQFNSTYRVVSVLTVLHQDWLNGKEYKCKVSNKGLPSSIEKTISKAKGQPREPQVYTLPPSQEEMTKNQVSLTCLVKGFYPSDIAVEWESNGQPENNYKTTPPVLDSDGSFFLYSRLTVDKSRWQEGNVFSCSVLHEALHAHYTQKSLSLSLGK
light: DIQLTQSPSFLSASVGDRVTITCRTSKSISKHLAWYQQKPGKAPKLLIYSGSTLQSGVPSRFSGSGSGTEFTLTISSLQPEDFATYYCQQHNEYPYTFGQGTKLEIK
notes: also called FMEH PLA; FMEH-PLA; not shown: human light chain constant region
Kd (human FcRn): 6.47 nM | Kd (Cyno FcRn): 14 nM
